Results as given in the DeepSol protein solubility set.

Assay: soluble on expression in E. coli; label from the status in PepcDB or PDB records

Sequence	soluble on expression in E. coli
MTTSDSRSFMYRLLKFISRQPIQLSRLFARMLAGLVNTLKLTKTSRTIQLNLKITLPYLNDQQRERIIQNAIRNELTSYMEFFSIWGSSNQKNISRIHHVEGADFFHQAIAENKGIVLIVPHFGTWEIMNAWCAQYTDMTILYKPVKDKDADRFVREARSREQAKLVPTDESGVRQIFKALKQGGTTVILPDHTPNVGGEMVDYFGIPLASSNLSAKLIQKTKAKALFLYAIRNENHGFDMFIEPMDPAIYQGTDHDGTLVIHHAIEDLIRKYPDHYHWSYKRFKA	not soluble
MTTTGIIAEFNPFHNGHKYLLDQAHGLKIVAMSGNFVQRGEPAIIDKWTRAQMALENGADLVVELPFLVAVQSADYFASGAVDILAKLGIDTLAFGTETALDYNGLSTIYGKMAEQMSEFLTTLPEKLSYPQKTQLMWEKFAGVQFTGDTPNHILALAYAKACAGRNIRLRPIQRRGADYHSTEKTVAYASATSLRHHRQDPAFVAKSMPNANLFQTSPQVTWEDYFTLLQYQVLTQPDLTQLFQVNEELAIRIKKAIRQVTSFDQLVETVATKRYTKARVRRILIYILIGARETSLPQDVHILGFTAAGRTHLSHIKNKTRIISRIGSQPWDALTQQADQVYQLGNPKIAEQTWGRVPI	not soluble
MTTVRIPAGWPATEEEARAVQDELRGRVILDEPGPPPGTGRVTGVDVAYDDERDVVVAAAVVLDAATLDVVAEATAVGEVSFPYVPGLLAFREIPTVLAALDALPCPPGLIVCDGYGVAHPRRFGLASHLGVLTGLPTIGVAKNPFTFSYEDPGAPRGSAAPLLAGADEVGRALRTQSGVKPVFVSVGHRVDLDHACAHTLALTPKYRIPETTRRADSLCRRALKEATALEHHHHHH	soluble
MTTVTKHKVLLIAGPTAVGKTALSLALAKQLNGEIISGDSMQVYRHLDIGTAKIMPEEQAGIPHHLIDIKNIDQRFTVAEFVSRTTALIIDISARGKLPIIVGGTGFYLQSLLAGYQFGPADNEPDMAYRQAWFDRAAVEGSDVAWMALKQRDPQAATAIAPANLVRVVRALEYVHTTGQLFSEQADTHGDTLDAYTLCLTAERALLYTRINQRVDQMVAAGLEQEARWLFDQGGAMLPAGKGIGYHEWFPYFNGEQTRDESIAKIKQDSRRYAKRQLTWFRNKMSVDWINLLEHPELRASIDQRLASWLSLEHHHHHH	soluble
MTTYDRNRNAITTGSRVMVSGTGHTGKILSIDTEGLTAEQIRRGKTVVVEGCEEKLAPLDLIRLGMN	soluble
MTVDDIMVPRSEIIGIDINDDWKSILRQLSHSPHGRIVLYRDSLDDAISMLRVREAWRLMSEKKEFTKETMLRAADEIYFVPEGTPLSTQLVKFQRNKKKVGLVVNEYGDIQGLVTVEDILEEIVGDFTTSMSPTLAEEVTPQNDGSVIIDGTANVREINKAFNWHLPEDDARTVNGVILEALEEIPVAGTRVRIGEYDIDILDVQDNMIKQVKVFPVKPLRESVAELEHHHHHH	soluble
MTVKAVFFDIDGTLLNDRKNIQKTTQKAIQQLKKQGIMVGLATGRGPGFVQPFLENFGLDFAVTYNGQYILTRDKVLYQNQLPKSMIYKVIRYANEKKREISLGTASGLAGSRIIDMGTSPFGQVISSFVPKSWARTVEGSFKHLIRRIKPQSFRNLVTIMREPIYQVVLVASQAETKKIQEKFPHIKITRSSPYSLDLISVDQSKIKGIERLGEMFGFDLSEVMAFGDSDNDLEMLSGVGIGIAMGNAETVVKDGAHFTTDSNNNDGISKALAHYGLIH	not soluble
MTVPIAIIGTGIAGLSAAQALTAAGHQVHLFDKSRGSGGRMSSKRSDAGALDMGAQYFTARDRRFATAVKQWQAQGHVAEWTPLLYNFHAGRLSPSPDEQVRWVGKPGMSAITRAMRGDMPVSFSCRITEVFRGEEHWNLLDAEGQNHGPFSHVIIATPAPQASTLLAAAPKLASVVAGVKMDPTWAVALAFETPLQTPMQGCFVQDSPLDWLARNRSKPERDDTLDTWILHATSQWSRQNLDASREQVIEHLHGAFAELIDCTMPAPVFSLAHRWLYARPAGAHEWGALSDADLGIYVCGDWCLSGRVEGAWLSGQEAARRLLEHLQLEHHHHHH	soluble
MTVRIAINGFGRIGRNVVRALYESGRRAEITVVAINELADAAGMAHLLKYDTSHGRFAWEVRHEREQLFVGDDVIRILHERTLADLPWRELGVDVVLDCTGVYGNREHGEAHIAAGAKKVLFSHPGSNDLDATVVFGVNQNQLRAEHRIVSNASCTTNCIIPVIKLLDDAYGIESGTVTTIHSAMNDQQVIDAYHSDLRRTRAASQSIIPVDTKLAAGITRIFPQFNDRFEAIAVRVPTINVTAIDLSVTVKKPVKASEVNQLLQKAAQGAFHGIVDYTESPLVSIDFNHDPHSAIVDGTQTRVSGAHLIKTLVWCDNEWGFANRMLDTTLAMAAVGFRLDASASTKL	not soluble
MTVTSSAAIDIGGGGGGRRSDRLDSDRTSEDMSFIASPANESFQIGASFVDVQNESSGSIDTATATLHELNYTFGMPPVTEESENMPQNYETVVELLPGEERAPINKLTEFPIEGGSLFVTNFRIVVILKDKEVEEALRFLVFPLQDIEQIDLAIPAFIHLSLKIGRMFTICFKTAEDAALVHKILYTAFQRLNRPISSIYTSRPQDWTSKNTDNPMQSLNAFAWKFSEAVDELDRDGKLPSWLLRADSVAQEITHIDFNRLGMSEHFQISSVNENFEVCPTYPEKIIVPKGITDDDIRKGAPYRSIGRFPAVIWRCRKTRAVLMRSSQPQVGILSWRNPTDEKIIEEAVKASRIEGEEKKQFIIMDARGYTSAFANRARSGGFENTEYYQQAKLEFLGLPNIHAVRGSFNNVRTMLHNLGPNEQLLTSLQTTGWLLNLSNLLVNAANCADHLSKGHSVLVHCSDGWDRTTQVTTLAKIMLDEYYRTVKGFEELIRRDWIAFGHKLYDRQLVAFGNWGTSDERSPVFLQFLEAVRHLQREQPTLFQFTHAYLIKLAKHAYSGLFGSFLFNSHKERREAMEKCKGTLVDIWRFIGPHNEEYVNQSFDEHYTGAVKPVNVSVINLRVWHEVFADEEEHYTQIFSPKEERPLSGCTTPMNTSTSTNLVKSKSSESINSLNVDGSAKESSQQHPTCSTTPSDNTNSLPMSTSFIQQSLYQPKVRGVAAIDRDGVIRFEDDEQAMLRKKNKLRAEEIRRKDEKIEELRRRAVLDTNKVSPGQRQSYSESDVETTGTLERVMSDVSMVDPVNELPHFKPNTTWEGESGHCAYCKKEFNKLSVYVEDRQHHCRNCGRVVCEDCSKNRFSVIEEGKSVQKRACDSCYDSMHETDLKLSSSSTTTTSSSTKIENDSNVPGLDNNSDNVSENVSENAIPDIIVEEKEAEDPIKEAESPSKETKCPKTLRNFISFSPKSSMRKNKVHSRDPLKSIDEGSSSQQAESDDVLDVNEQPL	not soluble
MTVTSSAAIDIGGGGGGRRSDRLDSDRTSEDMSFIASPANIGASFVDVQNESSGSIDTATATLHELNYTFGMPPVTEESENMPQNYETVVELLPGEERAPINKLTEFPIEGGSLFVTNFRIVVILKDKEVEEALRFLVFPLQDIEQIDLAIPAFIHLSLKIGRMFTICFKTAEDAALVHKILYTAFQRLNRPISSIYTSRPQDWTSKNTDNPMQSLNAFAWKFSEAVDELDRDGKLPSWLLRADSVAQEITHIDFNRLGMSEHFQISSVNENFEVCPTYPEKIIVPKGITDDDIRKGAPYRSIGRFPAVIWRCRKTRAVLMRSSQPQVGILSWRNPTDEKIIEEAVKASRIEGEEKKQFIIMDARGYTSAFANRARSGGFENTEYYQQAKLEFLGLPNIHAVRGSFNNVRTMLHNLGPNEQLLTSLQTTGWLLNLSNLLVNAANCADHLSKGHSVLVHCSDGWDRTTQVTTLAKIMLDEYYRTVKGFEELIRRDWIAFGHKLYDRQLVAFGNWGTSDERSPVFLQFLEAVRHLQREQPTLFQFTHAYLIKLAKHAYSGLFGSFLFNSHKERREAMEKCKGTLVDIWRFIGPHNEEYVNQSFDEHYTGAVKPQIFSPKEERPLSGCTTPMNTSTSTNLVKSKSSESINSLNVDGSAKESSQQHPTCSTTPSDNTNSLPMSTSFIQQSLYQPKVRGVAAIDRDGVIRFEDDEQAMLRKKNKLRAEEIRRKDEKIEELRRRAVLDTNKVSPGQRQSYSESDVETTGTLERVMSDVSMVDPVNELPHFKPNTTWEGESGHCAYCKKEFNKLSVYVEDRQHHCRNCGRVVCEDCSKNRFSVIEEGKSVQKRACDSCYDSMHETDLKLSRATSLSEMSSFDSFGPSSPPASSTSSSSLNMLASMSPTRPQPIPISCKSSSNSISSPRPSPGEFSRHSSTQAVKG	not soluble
MTYDLSRLTQDLPHETSEPSPKSASTLSLPPGESDQNGNTSSHEGVTPPRRRCTISRSSSIDSISGETLISEYFSSDELDKLSTALSEVTF	not soluble
MTYFTSWDEFAKAAERLHSANPEKCRFVTKYNHTKGQLVLKLTDDVVCLQYSTNQLQDVKKLEKLSSTLLRGIVTQ	soluble
MTYGYPKKWKENMTSGQVIAAELRLGIVSGEIESHIQLSENQVAQQFNVSRSPVRDAFKLLQTDQLIQLERMGAQVLPFGDQEKKEMYDLRLMLESFAFSKLSGTDTQHIIKEMKKQLEMMKVAVQFEDAEAFTQHDFEFHEVMIQATNHQYLKVFWNHLKPVMESLILISMRQRMANDPKDFERIHKNHQVFIDAVENDDASILRKAFHLNFDDVGENIEAFWLR	not soluble
MTYKELATFLKVLSDSSRLEILDLLSCGELCACDLLAHFQFSQPTLSYHMKALVKTNLVTTRKIGNKHLYQLNHNIFESVINNLSKVHTSNQRCICHNLKTGEC	not soluble
MTYPYRTTMALNTYQYRETTMIDPKKIEQIARQVHESMPKGIREFGEDVEKKIRQTLQAQLTRLDLVSREEFDVQTQVLLRTREKLALLEQRISELENRSTEIKKQPDPETLPPTLLEHHHHHH	not soluble
MVADHFRYLVQYDDINREEHAHKSRIAYQEALGIAKDKMQPTHPIRLGLALNASALNFDVLNLPKEANEIAQSALDSAHRELEKMKSSLDSYDISNLKRARTLYDLLKSTHEQRVDGKEGEEADN	not soluble
MVAKISVGSSLFGALSYNQNKVDEEQGKVLLSNRMFESEDGNFSIRRCMECFDIHLPADLKTEKPIIHISLNPHPDDVLLDSQLADIAKEYMDKLGYGNQPYIVYKHEDIARHHIHIVSIRVDDTGKKINDKFEHIRSKQITRELEQKYGLHPAEKKQAAERPELKKVDYRAGDVKHQLSNTVKALASSYRFQSFTEYKALLSIYNVQAEEVKGEVNGKPYNGIVYSATNDKGEKQGNPFKSSSLGKSVGYEAIQRHIKKSTKDIQGKNLKERTRRTVGAVMKSTYNRKELEQELKKKGIDVLFRQNDTGRIYGVTFIDHENRTVLNGSRLGKDFSANVFNNLFSGSRTLTGNSKQEMQEHTPEFNSTGHLENTGKTIAGLFSLLSGGNDTPPDNSQVPPSKKRKKKKQRRILEHHHHHH	not soluble
MVALSNALSRVFGSLAGYKFPSFIQKGINALYVKIFKIDLSEFEPLENYRSLNALFTRSLKKERPFDKSPNICIAPCDALITECAFLDNDSALQIKGMPYKAHELVGEINPLSPSFFYANFYLSPKDYHHYHAPCDLEILEARYFAGKLLPVNKPSLHKNNNLFVGNERVTLVAKDIQGNRLYFVAVGALNVGKMRFNFDKNIQTNAKARFTQTYSYNPPIKVKKGDNLGNFEMGSTIVLFIQNTAFKDLKEKNVKFGESIGEFHANLEHHHHHH	soluble
MVAPSFPLFNLPQKNLKDVFCNMSVIQQTCISLISEKTRNLVREFHIFKQLQVCLDFIFLPDYHFYLKGSAKFIFIPHNRKFIARSSSGEHSNYSVPQFDAKSWLKHLIYIFNVTEIHSLRSRFFDWDLREPRLKMPKECLKNLKILNLSIGFTNKISLVVELYSAFQHIKKFSLRQYSHKPLDSTLLLELRHLLSKTNQQLCLNINLPLNELLLTSCSSIDIHRTQLTDKDINVFLKHWFAGLKPELEHFRVRKDGPAFNQKTILKGIPHEFASIGRKFKLFEMDSQVGGIDIDLGQDIKATLVFNHKPGIADFSVAVHNSKYFFC	not soluble
